Data published in publication PMC3431356, “Staphylococcus aureus Methicillin-Resistance Factor fmtA Is Regulated by the Global Regulator SarA”.

Tests used:
[1] = target: T1, SarA (Staphylococcus aureus MRSA252, UniProt Q6GJ52 1-124); assay: EMSA; no binding up to 1.8 uM SarA; EMSA: 10 mM Tris-HCl pH 7.5, 50 mM KCl, 1 mM DTT, 5 mM MgCl2, 2.5% glycerol, 1 ug poly(dI-dC), 200 ng herring sperm DNA, 30 min, temperature not stated, 6% native gel; Kd = protein at 50% bound DNA. Footprinting: same buffer, 37 C, DNase I at 25 C; settings: protein: recombinant; tags: none (pET22b, pelB leader removed); chain copies: 2; label: 5'-32P
T1 sequence: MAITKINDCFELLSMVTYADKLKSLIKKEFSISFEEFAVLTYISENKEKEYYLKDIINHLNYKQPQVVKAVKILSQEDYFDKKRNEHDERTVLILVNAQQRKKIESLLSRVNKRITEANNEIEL

[2] = target: T1, SarA; assay: EMSA; printed as >=1.8 uM; no saturation up to 3.6 uM, binding stated; EMSA: 10 mM Tris-HCl pH 7.5, 50 mM KCl, 1 mM DTT, 5 mM MgCl2, 2.5% glycerol, 1 ug poly(dI-dC), 200 ng herring sperm DNA, 30 min, temperature not stated, 6% native gel; Kd = protein at 50% bound DNA. Footprinting: same buffer, 37 C, DNase I at 25 C; settings: protein: recombinant; tags: none (pET22b, pelB leader removed); chain copies: 2; label: 5'-32P
[3] = target: T1, SarA; assay: EMSA; EMSA: 10 mM Tris-HCl pH 7.5, 50 mM KCl, 1 mM DTT, 5 mM MgCl2, 2.5% glycerol, 1 ug poly(dI-dC), 200 ng herring sperm DNA, 30 min, temperature not stated, 6% native gel; Kd = protein at 50% bound DNA. Footprinting: same buffer, 37 C, DNase I at 25 C; settings: protein: recombinant; tags: none (pET22b, pelB leader removed); chain copies: 2; label: 5'-32P; blunt

B1: seqB1 (dsDNA)
DNA 1: CATATTAGAAAAACTTATTACTATGTAGCGTAAAGC
DNA 2: GCTTTACGCTACATAGTAATAAGTTTTTCTAATATG
binding result [1]: no binding

B2: seqA1 (dsDNA)
DNA 1: CATTATAGCCTTAAATTGTAGTACTTTATAGTAAAAAATACAAATGTTATGTC
DNA 2: GACATAACATTTGTATTTTTTACTATAAAGTACTACAATTTAAGGCTATAATG
Kd [2]: > 1800 nM

B3: Pagr 45-bp (dsDNA)
DNA 1: GTAAATTTTTTTATGTTAAAATATTAAATACAAATTACATTTAAC
DNA 2: GTTAAATGTAATTTGTATTTAATATTTTAACATAAAAAAATTTAC
Kd [3]: ~400 nM
